From article PMC7771633 (Cell, 2020)

B1: HENV-26, human monoclonal antibody, IgG (antibody, V domains shown)
VH: EVQLLESGGGLIQPGGSLRLSCAASGFTFSRFTMSWVRQPPGKGPEWVSGISGSGGHTYYADSVKGRFTISRDNSKNTLYLQMNSLKAEDTAVYYCAKDGFVGQQLMRRGPWWFDPWGQGTLVTVSS
VL: SYVLTQPPSVSVAPGQTARISCGGNNIGNKGVHWYQQKPGQAPVVVVYDDSDRPSGIPERFSGSNSGNTATLTISRVEAGDEADYYCQVWDSSSDHVVFGGGTKLTVL
B2: HENV-32, human monoclonal antibody, IgG (antibody, V domains shown)
VH: QVQLVQSGAEVKKPGSSVKVSCKVSGGIFNRETINWVRQAPGQGLEWMGRITPIVDVPNYPRKFRGRVTITADKSTSTVYMELSGLRFEDTAIYFCARFRGHNYFDPWGQGTLVTVSS
VL: SYVLTQPPSVSVAPGQTARITCGGNNIGGKSVHWYQQKPGQAPVLVVYDDRDRPSGIPERFSGSNSGDTASLTISRVDAGDEADYFCQVWDNASDEAVFGGGTKLTVL
B3: HENV-32 Fab (Fab, V domains shown)
VH: B2 VH
VL: B2 VL

Tests used:
[1] = target: T1, HeV-RBP head domain (Hendra virus receptor binding protein, residues 185 – 604) (Hendra virus, UniProt O89343); test: ELISA
T1 sequence (O89343 185-604): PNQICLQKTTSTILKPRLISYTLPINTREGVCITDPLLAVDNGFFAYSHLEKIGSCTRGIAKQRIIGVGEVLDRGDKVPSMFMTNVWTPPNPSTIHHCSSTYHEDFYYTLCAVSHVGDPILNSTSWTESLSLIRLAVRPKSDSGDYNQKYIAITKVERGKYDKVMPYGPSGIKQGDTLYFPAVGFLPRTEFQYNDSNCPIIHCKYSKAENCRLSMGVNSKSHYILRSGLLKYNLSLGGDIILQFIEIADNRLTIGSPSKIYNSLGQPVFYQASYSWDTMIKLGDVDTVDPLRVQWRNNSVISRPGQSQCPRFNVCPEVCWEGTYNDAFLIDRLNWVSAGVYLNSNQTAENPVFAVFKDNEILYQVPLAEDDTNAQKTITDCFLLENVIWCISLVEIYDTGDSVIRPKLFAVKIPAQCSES

[2] = target: full-length NiVB RBP expressed on the surface of mammalian cells (Nipah virus, strain Bangladesh, UniProt Q4VCP5, strain); test: flow cytometry on cells
[3] = target: full-length NiVM RBP expressed on the surface of mammalian cells (Nipah virus, strain Malaysia, UniProt Q9IH62); test: cell-based or functional assay
full-length NiVM RBP expressed on the surface of mammalian cells, sequence (Q9IH62 whole entry): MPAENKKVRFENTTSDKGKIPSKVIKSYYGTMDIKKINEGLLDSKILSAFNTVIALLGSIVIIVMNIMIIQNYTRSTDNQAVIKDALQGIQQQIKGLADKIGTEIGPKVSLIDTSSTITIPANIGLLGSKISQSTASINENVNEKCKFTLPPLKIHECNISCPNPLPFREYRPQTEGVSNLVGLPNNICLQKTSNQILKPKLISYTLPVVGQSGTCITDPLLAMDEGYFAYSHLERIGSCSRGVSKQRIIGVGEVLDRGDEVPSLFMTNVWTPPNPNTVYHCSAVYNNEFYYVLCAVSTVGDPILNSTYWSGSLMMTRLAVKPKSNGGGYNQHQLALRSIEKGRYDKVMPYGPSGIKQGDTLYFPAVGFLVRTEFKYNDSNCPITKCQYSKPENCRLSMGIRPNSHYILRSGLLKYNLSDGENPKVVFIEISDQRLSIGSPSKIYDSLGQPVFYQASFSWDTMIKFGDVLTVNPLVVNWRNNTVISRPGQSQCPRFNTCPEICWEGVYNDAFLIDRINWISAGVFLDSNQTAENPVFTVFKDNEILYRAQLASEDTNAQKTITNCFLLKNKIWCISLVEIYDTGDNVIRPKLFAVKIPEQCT

[4] = target: full-length HeV-RBP expressed on the surface of mammalian cells (Hendra virus, UniProt O89343); test: cell-based or functional assay
full-length HeV-RBP expressed on the surface of mammalian cells, sequence (O89343 whole entry, the tested form may be a part): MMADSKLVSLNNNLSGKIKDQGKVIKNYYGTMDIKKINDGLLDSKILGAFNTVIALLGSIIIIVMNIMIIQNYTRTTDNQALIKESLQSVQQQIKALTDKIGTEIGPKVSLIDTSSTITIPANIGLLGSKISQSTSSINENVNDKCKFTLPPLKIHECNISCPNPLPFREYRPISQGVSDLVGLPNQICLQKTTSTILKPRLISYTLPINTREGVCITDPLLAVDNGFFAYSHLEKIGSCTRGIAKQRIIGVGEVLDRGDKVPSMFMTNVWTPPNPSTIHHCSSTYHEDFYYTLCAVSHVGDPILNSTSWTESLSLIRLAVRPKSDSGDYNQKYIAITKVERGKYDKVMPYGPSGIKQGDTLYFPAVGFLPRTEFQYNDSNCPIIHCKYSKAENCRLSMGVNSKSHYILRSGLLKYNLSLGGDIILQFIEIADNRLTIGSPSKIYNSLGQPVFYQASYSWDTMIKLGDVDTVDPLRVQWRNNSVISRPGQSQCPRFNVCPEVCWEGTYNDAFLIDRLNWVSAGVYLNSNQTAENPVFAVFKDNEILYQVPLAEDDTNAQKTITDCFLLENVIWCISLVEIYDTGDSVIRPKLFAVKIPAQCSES

[5] = target: T1, HeV-RBP head domain (Hendra virus …); test: BLI

Row | Binder | Area under the curve [1] | binding result [2] | IC50 of neutralization of NiVM (plaque reduction assay) [3] | IC50 of neutralization of HeV (plaque reduction assay) [4] | Kd [5]
1 | B1 | 5.39 | binds |  |  | 
2 | B2 | 3.71 |  | 0.31 µg/mL | 0.27 µg/mL | 
3 | B3 |  |  |  |  | 2.1 nM
